According to US20150259426A1 (Novartis, published 2015):

B1: 7A12 (monomeric anti-DR5 NB construct) (VHH)
VHH: EVQLVESGGGLVQAGGSLRLSCAASGRTFSNYAMGWFRQAPGKEREFVAALNWSGGSTYYVDSVKGRFTISRDNAKNTVYLQMNSLKPEDTAVYYCAAAGSFSLGGRPYGDDYWGKGTLVTVSS
notes: llama VHH; periplasmic extract or purified monovalent material from E. coli; not shown: C-terminal c-myc tag and (His)6 tag coded by the vector
B2: 11D1 (monomeric anti-DR5 NB construct) (VHH)
VHH: EVQLVESGGGLVQPGGSLRLSCAASGSIDSINNMGWYRQAPGKQRELVAEITPRGRTNYADSEKSRFTISRDNAKRTVNLQMNSLKPEDTAVYYCNAEVRERGTSWYRPDYWGQGTQVTVSS
notes: as for B1
B3: 4E6 (monomeric anti-DR5 NB construct) (VHH)
VHH: EVQLVESGGGSVQAGDSLRLSCAASGRTFGSIRVGWFRQTPGKEREFVAAINRNDGTTYYADSVKGRFTISRDNAKNTVYMQMASLKPEDTAVYYCAAGLQYNRSADRVPVGAVYWGQGTQVTVSS
notes: llama VHH; periplasmic extract or purified monovalent material from E. coli; also called 4E6 parent; wild type 4E6; not shown: C-terminal c-myc tag and (His)6 tag coded by the vector
B4: 10F1 (monomeric anti-DR5 NB construct) (VHH)
VHH: EVQLVESGGGLVQPGGSLRLSCAASGFTFSRYWMYWVRQAPGKGLEWVSAINSGGGDTYYRDSVRGRFTISRDNFKNTLYLQMNSLKSEDTAVYYCAKAEGPPTFSLIRTMTVDPGAQGTQVTVSS
notes: as for B1
B5: 4E6-Hu (monovalent humanized, N-glycosylation knock-out variant of 4E6) (VHH)
VHH: EVQLLESGGGLVQPGGSLRLSCAASGRTFGSIRVGWFRQAPGKGREFVSAINRNDGTTYYADSVKGRFTISRDNSKNTVYLQMNSLRPEDTAVYYCAAGLQYNRAADRVPVGAVYWGQGTLVTVSS
notes: produced in E. coli and purified

Each binder was assayed against T1, cell-bound cynomolgus DR5 (CHO-K1 cells transfected with the full length cynoDR5 gene) (cynomolgus) (assay: FACS, periplasmic extract on CHO-K1 cells expressing cynomolgus DR5, anti-myc detection).
T1 construct: whole, on cells

Binder	mean count fluorescence
B1	24500
B2	417
B3	2870
B4	1630

What follows are binders tested against T2, cell-bound human DR5 (Colo205 and other human cell lines) (human, UniProt O14763 56-440) (assay: FACS, periplasmic extract on Colo205 cells, anti-myc detection).
T2 construct: endogenous DR5 of the cell lines

Binder	mean count fluorescence
B1	1100
B2	919
B3	972
B4	125

What follows are binders tested against cynomolgus DR5 (construct used not stated) (cynomolgus) (assay: SPR kinetics (Biacore), cynomolgus DR5).

Binder	Kd [nM]
B3	5.5
B5	1.6

These binders were tested against T1, cell-bound cynomolgus DR5 (CHO-K1 cells …) (assay: FACS saturation binding, apparent KD, cell-bound cynomolgus DR5).

Binder	Kd [nM]
B3	7.3
B5	8.8

The binders below were run against T3, cynomolgus DR5-Fc fusion protein (cyno DR5 amino acids 56 to 213 fused with human IgG1 Fc) (cynomolgus; human) (assay: ELISA, periplasmic extract, plate coated with cynomolgus DR5-Fc, anti-myc detection).

Binder	ABS405 nm [ABS405 nm]
B1	0.341
B2	0.213
B3	0.313
B4	0.124

What follows are binders tested against T3, cynomolgus DR5-Fc fusion protein (cyno …) (assay: SPR (Biacore), CM5 chip coated with cynomolgus DR5-Fc, 1 to 100 nM NB construct).

Binder	Kd [nM]
B1	7.1
B2	220
B3	16
B4	140
